Experimental findings from US9964541B2, “Method and devices for capturing circulating tumor” (THE BOARD OF TRUSTEES OF THE UNIVERSITY OF ILLINOIS, priority 2009, dated 2018) are described below.

The test concerns P-selectin antibody. The experiment in a line: SPR antibody binding to oriented versus randomly immobilized P-selectin. The settings on record: 20 μg/mL P-selectin antibody, 20 μL/min; compared to randomly immobilized P-selectin, comparable amounts immobilized. As to the method: Enhanced controllability of surfaces by covalent immobilization: Previously, we have shown the surfaces with covalently immobilized P-selectin present enhanced functional stability by approximately 10 times, as compared to those with physisorbed P-selectin. The surface stability was assessed using cell-mimicking microspheres as well as live neutrophils. We also developed immobilization chemistries (as shown FIG. 5) on gold coated, […] PEGylated surfaces to employ the flow-based SPR technique that quantitatively analyze the surface functions, offering: 1) easy surface functionalization using thiol chemistries due to the presence of a gold layer and 2) quantitative and real time monitoring of binding events without any modification of analytes. Thus, the SPR technique is useful particularly for determining controllability of density and orientation of P-selectin. The chemistries described in FIG. 5 were developed to achieve non-fouling surfaces and to provide reactive sites for subsequent P-selectin immobilization using oligo(ethylene glycol)-alkanethiols (Prochimia, Poland) on gold coated SPR chips. Briefly, the gold chip surface was cleaned before the subsequent formation of mixed self assembled monolayers (SAMs) by washing with absolute ethanol and drying by nitrogen blowing. […]

B1: oriented P-selectin: P-selectin biotinylated at its single cysteine, immobilized through biotin-streptavidin binding on OEG-biotin SAM (protein, UniProt P16109 42-830, looked up)
P-selectin: WTYHYSTKAYSWNISRKYCQNRYTDLVAIQNKNEIDYLNKVLPYYSSYYWIGIRKNNKTWTWVGTKKALTNEAENWADNEPNNKRNNEDCVEIYIKSPSAPGKWNDEHCLKKKHALCYTASCQDMSCSKQGECLETIGNYTCSCYPGFYGPECEYVRECGELELPQHVLMNCSHPLGNFSFNSQCSFHCTDGYQVNGPSKLECLASGIWTNKPPQCLAAQCPPLKIPERGNMTCLHSAKAFQHQSSCSFSCEEGFALVGPEVVQCTASGVWTAPAPVCKAVQCQHLEAPSEGTMDCVHPLTAFAYGSSCKFECQPGYRVRGLDMLRCIDSGHWSAPLPTCEAISCEPLESPVHGSMDCSPSLRAFQYDTNCSFRCAEGFMLRGADIVRCDNLGQWTAPAPVCQALQCQDLPVPNEARVNCSHPFGAFRYQSVCSFTCNEGLLLVGASVLQCLATGNWNSVPPECQAIPCTPLLSPQNGTMTCVQPLGSSSYKSTCQFICDEGYSLSGPERLDCTRSGRWTDSPPMCEAIKCPELFAPEQGSLDCSDTRGEFNVGSTCHFSCDNGFKLEGPNNVECTTSGRWSATPPTCKGIASLPTPGVQCPALTTPGQGTMYCRHHPGTFGFNTTCYFGCNAGFTLIGDSTLSCRPSGQWTAVTPACRAVKCSELHVNKPIAMNCSNLWGNFSYGSICSFHCLEGQLLNGSAQTACQENGHWSTTVPTCQAGPLTIQEALTYFGGAVASTIGLIMGGTLLALLRKRFRQKDDGKCPLNPHSHLGTYGVFTNAAFDPSP
modifications: biotinylated at cysteine
With B1, the antibody binding response entry is recorded as “significantly greater binding response”.
